Data taken from publication PMC8497620, “Structure and inhibition of Cryptococcus neoformans sterylglucosidase to develop antifungal agents” (Nature Communications, 2021).

Target: C. neoformans Sgl1 (Cryptococcus neoformans var. grubii, UniProt J9W473)
Assay: H/D exchange mass spectrometry mapping of disordered regions
Settings: H/D exchange MS of C. neoformans Sgl1; per peptide (amino acids Start-End, Sequence); Fig S2a
Description: HDX-MS reactions were performed in a similar manner as is outlined in previous publications. HDX reactions were conducted in a final reaction volume of 50 µL with a final Sgl1 concentration of 0.6 µM (30 pmol). Exchange was carried out in triplicate for a single time point (3 s at 4 °C). Hydrogen deuterium exchange was initiated by the addition of 48 µL of D2O buffer (100 mM NaCl (20 mM pH 6.0 Bis-Tris), 90.5% D2O (V/V) to 1 µL of protein and 1 µL of H2O. Exchange was terminated by the addition of ice-cold acidic quench buffer, resulting in a final concentration of 0.6 M guanidine-HCl and 0.9% FA post quench. Samples were immediately frozen in liquid nitrogen and stored at −80 °C. Fully deuterated samples were generated by first denaturing the protein in 2 M guanidine for 5 min at 20 °C. Following denaturing, 48 µL of D2O buffer was added to the denatured protein and allowed to incubate for 5 min at 20 °C before quenching. Samples were flash frozen and stored at −80 °C until injection onto the ultra-performance liquid chromatography (UPLC) system for proteolytic cleavage, peptide separation, and injection onto a QTOF for mass analysis.
Protein sample was rapidly thawed and injected onto a UPLC system kept in a cold box at 2 °C. The protein was run over two immobilized pepsin columns (Applied Biosystems; Porosyme 2-3131-00) and the peptides were collected onto a VanGuard Precolumn trap (Waters). The trap was eluted in line with an ACQUITY 1.7 μm particle, 100 × 1 mm^2 C18 UPLC column (Waters), using a gradient of 5–36% B (Buffer A 0.1% formic acid, Buffer B 100% acetonitrile) over 16 min. MS experiments were performed on an Impact QTOF (Bruker) and peptide identification was done by running tandem MS (MS/MS) experiments run in data-dependent acquisition mode. The resulting MS/MS dataset was analyzed using PEAKS7 (PEAKS) and a false discovery rate was set at 1% using a database of purified proteins and known contaminants. HDExaminer Software (Sierra Analytics) was used to automatically calculate the level of deuterium incorporation into each peptide. All peptides were manually inspected for correct charge state and presence of overlapping peptides. Deuteration levels were calculated using the centroid of the experimental isotope clusters, with correction for back exchange generated using the fully deuterated sample. The mass spectrometry proteomics data have been deposited to the ProteomeXchange Consortium via the PRIDE partner repository[31] with the dataset identifier PXD024981.

C. neoformans Sgl1, sequence (J9W473 entry or part of it): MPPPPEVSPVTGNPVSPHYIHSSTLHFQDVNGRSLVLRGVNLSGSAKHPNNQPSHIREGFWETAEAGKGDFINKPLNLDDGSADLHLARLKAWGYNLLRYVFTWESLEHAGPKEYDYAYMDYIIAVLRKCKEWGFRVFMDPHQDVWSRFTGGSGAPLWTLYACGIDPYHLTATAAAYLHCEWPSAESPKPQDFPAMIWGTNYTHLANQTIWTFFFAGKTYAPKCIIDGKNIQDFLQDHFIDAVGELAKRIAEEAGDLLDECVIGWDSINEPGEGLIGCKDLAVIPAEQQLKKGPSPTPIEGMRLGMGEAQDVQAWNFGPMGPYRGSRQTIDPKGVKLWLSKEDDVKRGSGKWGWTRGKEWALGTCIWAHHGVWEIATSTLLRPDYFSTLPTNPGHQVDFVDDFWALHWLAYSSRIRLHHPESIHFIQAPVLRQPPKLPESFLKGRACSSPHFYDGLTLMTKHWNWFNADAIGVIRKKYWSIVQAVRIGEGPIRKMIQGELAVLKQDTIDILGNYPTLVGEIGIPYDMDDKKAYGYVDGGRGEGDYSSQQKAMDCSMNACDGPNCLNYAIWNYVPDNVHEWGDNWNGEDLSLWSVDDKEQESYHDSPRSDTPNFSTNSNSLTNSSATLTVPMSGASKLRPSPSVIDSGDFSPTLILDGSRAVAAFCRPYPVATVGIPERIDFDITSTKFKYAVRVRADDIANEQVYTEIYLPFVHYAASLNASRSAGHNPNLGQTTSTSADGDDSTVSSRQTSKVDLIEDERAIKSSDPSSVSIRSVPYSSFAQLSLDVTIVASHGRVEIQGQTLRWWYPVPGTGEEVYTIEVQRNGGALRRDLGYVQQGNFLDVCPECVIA

| Substance | % Deuterium incorporation, Average [%] |
| --- | --- |
| WALHWLAY | 4.9 |
| TIDPKGVKL | 7.9 |
| QQLKKGPSPTPIEG | 10.8 |
| IGCKDLAVIPAEQQLKKGPSPTPIEG | 24.8 |
| LRKCKEWGF | -8.6 |
| NASRSAGHNPNLGQTTSTSADGDDSTVSSRQTSKVDL | 102.1 |
| IDSGDFSPTLIL | 26.0 |
| LAYSSRIRLHHPESIHF | 4.9 |
| FLKGRACSSPHF | 26.5 |
| CVIGWDSINEPGEG | 3.6 |
| AASLNASRSAGHNPNLGQTTSTSADGDDSTVSSRQTSKVDL | 100.9 |
| YTHLANQTIWTFF | 3.1 |
| CIWAHHGVWE | 1.8 |
| IEVQRNGGAL | 28.7 |
| ERAIKSSDPSS | 103.4 |
| DTIDILGNYPTL | 14.2 |
| IDAVGEL | 5.7 |
| RWWYPVPGTGEEV | 29.8 |
| VTIVASHGRVEIQGQTLRWWYPVPGTGEEV | 18.9 |
| VRIGEGPIRKMIQGEL | 21.0 |
| YVDGGRGEGDYSSQ | 64.9 |
| TIEVQRNGGAL | 26.9 |
| AVIPAEQQLKKGPSPTPIEGM | 29.8 |

| Substance | % Deuterium incorporation, Average [%] |
| --- | --- |
| RADDIANE | 33.8 |
| VSIRSVPYSSF | 97.9 |
| LTVPMSGASKLRPSPSVIDSGD | 65.2 |
| IEDERAIKSSDPSSV | 101.6 |
| LDVCPEC | 80.8 |
| WSVDDKEQESY | 71.0 |
| WESLEHAGPKEYDYA | 8.8 |
| TWESLEHAGPKEYD | 5.0 |
| RAIKSSDPSSVSIRSVPYSSF | 104.9 |
| LRPDYFSTLPTNPGHQVDF | 37.3 |
| TLMTKHWNWFNA | 34.8 |
| DITSTKFKYAVRVRADDIANE | 9.0 |
| LKKGPSPTPIEG | 11.2 |
| MRLGMGEAQDVQAWNFGPMGPYRGSRQTIDPKGVKL | 19.3 |
| VIGWDSINEPGEGLIG | 3.9 |
| IQAPVLRQPPKLPESFL | 31.8 |
| AKRIAEEAGDLLDE | 12.0 |
| VTIVASHGRVEIQGQTL | 23.2 |
| YLHCEWPSAESPKPQDFPAM | 56.9 |
| STNSNSLTNSSA | 102.0 |
| ILDGSRAVAA | 26.4 |
| YACGIDPYHLTATA | 18.2 |
| YVDGGRGEGDYSSQQ | 65.8 |

| Substance | % Deuterium incorporation, Average [%] |
| --- | --- |
| INKPLNLDDGSADL | 26.9 |
| WSVDDKEQES | 70.6 |
| EIYLPFVHY | 0.7 |
| VQRNGGALRRDLG | 72.0 |
| DITSTKFKYAVRVRADD | 4.2 |
| IDSGDFSPTL | 36.2 |
| YTHLANQ | 4.9 |
| LTVPMSGASKLRPSPSVIDSGDFSPTL | 59.4 |
| KYAVRVRADDIANE | 12.4 |
| GQTTSTSADGDDSTVSSRQTSKVDL | 102.4 |
| VQRNGGAL | 39.7 |
| RRDLGYVQQGN | 98.6 |
| NADAIGVIRKKYWSIVQ | 33.7 |
| VGEIGIPYDMDDKKAYGYVDGGRGEGDY | 21.5 |
| EIATSTL | 59.2 |
| LTVPMSGASKLRPSPSV | 86.0 |
| AVLKQDTID | 23.0 |
| VIGWDSINEPGEGL | 4.0 |
| HCEWPSAESPKPQDF | 58.4 |
| RRDLGYVQQGNF | 98.0 |
| PVLRQPPKLPESFL | 40.7 |
| IGWDSINEPGEGL | 4.5 |
| SLEHAGPKEYD | 7.5 |

| Substance | % Deuterium incorporation, Average [%] |
| --- | --- |
| AKRIAEEAGDL | 9.2 |
| MRLGMGEAQ | 9.3 |
| AIWNYVPDNVHEWGDN | 23.9 |
| SYHDSPRSDTPNF | 96.9 |
| INKPLNLDDGSADLHL | 21.9 |
| IDILGNYPTL | 20.4 |
| RAIKSSDPSSV | 101.5 |
| WSVDDKEQESYHDSPRSDTPNF | 83.4 |
| VLKQDTIDILGNYPTL | 10.8 |
| RWWYPVPGTGE | 36.9 |
| VGELAKRIAEEAGDL | 5.8 |
| DITSTKF | 7.2 |
| WSRFTGGSGAPLWTL | 5.9 |
| AVRIGEGPIRKMIQGEL | 20.2 |
| IKSSDPSSVSIRSVPYSSF | 106.5 |
| PVLRQPPKLPES | 47.4 |
| IEVQRNGGALRRDLG | 58.5 |
| IYLPFVHY | 2.9 |
| NYVPDNVHE | 30.1 |
| RVFMDPHQDV | 5.4 |
| KKGPSPTPIEG | 6.7 |
| VIRKKYWSIVQ | 49.5 |
| AVIPAEQQLKKGPSPTPIEG | 30.1 |

| Substance | % Deuterium incorporation, Average [%] |
| --- | --- |
| NYVPDNVHEWGDN | 41.1 |
| WALGTCIWAHHGVWE | 1.7 |
| IIDGKNIQD | 14.1 |
| AYSSRIRLHHPESIHFI | 3.1 |
| VTIVASHGRVEIQGQTLRWWYPVPGTGEEVY | 18.9 |
| PVTGNPVSPHYIHSSTL | 36.8 |
| IYLPFVHYAASL | 21.4 |
| WAHHGVWE | 1.5 |
| DVTIVASHGRVEIQGQTLRWWYPVPGTGEEVY | 16.6 |
| KQDTIDILGNYPTL | 22.4 |
| ILDGSRAVAAF | 24.1 |
| WETAEAGKGDF | 47.7 |
| KDLAVIPAEQQLKKGPSPTPIEG | 24.0 |
| HDSPRSDTPNF | 91.2 |
| VGEIGIPYDMD | 24.9 |
| SRFTGGSGAPLWTL | 5.6 |
| AASLNASRSAGHNPNLGQTTSTSADGDD | 99.7 |
| VIRKKYWSIVQA | 46.8 |
| NYAIWNYVPDNVHE | 17.1 |
| WALGTCI | 3.3 |
| RAIKSSDPSS | 103.0 |
| LRWWYPVPGTGEEVY | 19.1 |
| WESLEHAGPKEYDY | 7.1 |

| Substance | % Deuterium incorporation, Average [%] |
| --- | --- |
| YVQQGNF | 102.8 |
| YVDGGRGEGD | 72.5 |
| YACGIDPYHLTA | 15.5 |
| PVLRQPPKLPESF | 50.6 |
| IQAPVLRQPPKLPESF | 36.0 |
| DVTIVASHGRVEIQGQTLRWWYPVPGTGE | 20.6 |
| FCRPYPVATVGIPERIDF | 5.0 |
| STNSNSLTNSSATLTVPMSGASKLRPSPSVIDSGDFSPTL | 72.8 |
| STNSNSLTNSSATLTVPMSG | 99.8 |
| ASKLRPSPSVIDSGDFSPTL | 47.3 |
| FSTLPTNPGHQVDF | 50.7 |
| IRKKYWSIVQAV | 45.4 |
| CVIGWDSINEPGEGLIGCKDL | 4.2 |
| TGGSGAPLWTL | 5.6 |
| STLPTNPGHQVDF | 73.1 |
| IEDERAIKSSDPSSVS | 106.2 |
| KKAYGYVDGGRGEGDYSSQQKAMD | 29.0 |
| LVLRGVNLSGSAKHPNNQPSH | 28.6 |
| RFTGGSGAPLWTL | 6.3 |
